Legend:
[1] = test system: CB1 receptor signaling, WIN55,212 induced ERK phosphorylation in Trex-CHO CB1 receptor cells; assay: ERK activation assay (western blot); assay type: cell-based, human; settings: IgG 300 nM; WIN55,212 100 nM, 10 and 15 minutes
Procedure: (§1) Two days before the experiment, Trex-CHO CB1 receptor cells were seeded at 500,000 cells/well into 6-well plates. 1 μg/mL tetracycline was used to induce CB1 receptor expression after 24 hours. Cells were serum starved for at least two hours before the experiment. […] Cell lysates were harvested and the level of ERK activation was determined by western blot. Anti-ERK and Anti-phospho-specific ERK antibodies were obtained from Cell Signaling Inc.
as §1, with “Trex-CHO CB1 receptor-expressing cells were” for “Trex-CHO CB1 receptor cells were”

[2] = molecular target: T1, CB1 (TRex-CHO cells stably expressing human CB1) (Homo sapiens, UniProt P21554); assay type: cell-based
T1 construct: pcDNA4/TO native full length human CB1 receptor construct was transfected into tetracycline inducible system Trex-CHO and Trex-293 cells; expressed in transfected cells
T1 sequence (P21554 whole entry): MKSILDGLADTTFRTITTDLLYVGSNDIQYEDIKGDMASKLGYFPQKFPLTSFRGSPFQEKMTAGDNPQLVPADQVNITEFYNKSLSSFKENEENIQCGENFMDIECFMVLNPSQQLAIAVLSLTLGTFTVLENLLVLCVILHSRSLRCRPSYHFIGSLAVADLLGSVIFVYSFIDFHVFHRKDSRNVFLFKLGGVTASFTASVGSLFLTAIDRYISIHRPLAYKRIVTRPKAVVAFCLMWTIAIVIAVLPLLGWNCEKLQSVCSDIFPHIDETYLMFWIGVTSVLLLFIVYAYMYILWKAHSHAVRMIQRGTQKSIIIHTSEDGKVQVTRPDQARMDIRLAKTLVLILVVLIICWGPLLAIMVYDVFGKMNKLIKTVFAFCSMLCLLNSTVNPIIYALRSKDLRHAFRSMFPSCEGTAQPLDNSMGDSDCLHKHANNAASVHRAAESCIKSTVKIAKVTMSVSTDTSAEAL
Procedure: A cAMP functional assay was performed to measure the antagonism of the antibodies. […] Data analysis was performed using GraphPad Prism.
Cell numbers, forskolin concentration and CP55,940 concentration were optimized according to the manufacturer's instructions. The cAMP antagonist functional assay was performed in white 384-well low volume plates (Greiner). […] Data analysis was performed using GraphPad Prism.
Data analysis was performed using GraphPad Prism. The mean±SD of IC50s and dissociation constants (Kd) shown were measured from at least 2 different experiments.
After 30 minutes incubation at 22° C., 5 μL cAMP-d2 and 5 μL anti-cAMP cryptate were added to the cells and incubated for 1 hour. […] Data analysis was performed using GraphPad Prism.

[3] = test system: denatured CB1 protein (His tagged, N/C-termini truncated human CB1); assay: Western blot recognition of denatured CB1 protein; assay type: binding; settings: 2 μg/mL
Procedure: A study was performed to examine whether PA13R3-P1C4 and its humanized variant antibodies recognize epitope(s) on denatured CB1 protein (His tagged, N/C-termini truncated CB1) by western blot analysis. Purified human CB1 protein (750 ng per lane) was mixed with SDS reducing buffer containing beta-mercaptoethanol (Double Helix). […] Membranes were blocked with 5% NFDM/PBS-T for one hour at 22° C. followed by immune-blotting with test antibodies (2 μg/mL) in 5% NFDM/PBS-T overnight at 4° C. Commercial mouse anti-His antibody and mouse anti-CB1 antibody (R&D Systems) were used as positive controls, and rabbit anti-CB1 antibody (Cayman), which recognizes a C-terminal region that was deleted from the recombinant CB1 protein used in this study, served as a negative control.
After overnight incubation, membranes were washed with 0.5% Tween-20 PBS (PBS-T) three times at 22° C. Secondary antibodies AP-conjugated anti-human IgG (1:5000) or anti-mouse IgG or anti-rabbit IgG in 5% NFDM/PBS-T were added to respective membranes and incubated for 1 hour at 22° C. Membranes were washed three times with PBS-T each for 5 minutes. After the final wash, signal was developed by incubating with NBT/BCIP substrate solution at 22° C. and the reaction was stopped by washing the membrane under running water.

[4] = molecular target: T2, CB1 surface expression (CB1 TRex-CHO / TRex-293 cells) (Homo sapiens, UniProt P21554); assay type: cell-based; settings: tetracycline induced, humanized variants
T2 construct: pcDNA4/TO native full length human CB1 receptor construct was transfected into tetracycline inducible system Trex-CHO and Trex-293 cells; expressed in transfected cells; tetracycline induced
T2 sequence (P21554 whole entry): as above

[5] = molecular target: CB1 receptor (TRex-CHO CB1 cells) (Homo sapiens, UniProt P21554); assay: Flow cytometry binding of P1C4 Fab
Chain of CB1 receptor (TRex-CHO CB1 cells) (P21554 whole entry): as above
Procedure: To determine PA13R3-P1C4 Fab binding affinity, full binding curves were generated on CB1 receptor by testing a range of concentrations using TRex-CHO cells stably transfected with tetracycline inducible CB1 expression construct by flow cytometry. Three-fold serial dilutions from 3 μM to 0.1 μM were prepared. FITC-conjugated anti-human antibody was used to detect PA13R3-P1C4 Fab.

B1: 36E12B6C2: hybridoma-derived anti-CB1 mAb; HC variable SEQ ID NO: 18, LC variable SEQ ID NO: 22 (antibody, listed as Mus sp., V domains shown)
VH: QVQLQQSGAELVRPGSSVKISCKASGYEFSYYWMNWVKQRPGQGLQWIGQIYPGDGDTNYNGKFKGKATLTADKSSSTAYMHLTSLTSEDSAVYFCARSGGNPFAFWGQGTLVTVSA
VL: DIQMTQTSSSLSASLGDRVTFSCRASQDISNYLNWYQQKPDGTVKLLIYYTSRLHSGVTSRFRGSGSGTDYSLTISNLEQEDVATYFCQQGHTLPWSFGGGTKLEIK
- block of WIN55,212 induced ERK phosphorylation [1]: blocked

B2: PA13R3-P1C4: phage-derived chimeric anti-CB1 IgG; HC variable SEQ ID NO: 2, LC variable SEQ ID NO: 6 (antibody, V domains shown)
VH: EVQLQQSGAELVRPGVSVKISCKASGYEFSYYWMNWVKQRPGQGLEWIGQIYPGDGETKYNGKFKGKATLTADKSSNTAYMQLSSLTSEDSAVYFCARSHGNYLPYWGQGTLVTVSA
VL: DIVLTQSPAIMSASLGERVTMTCTASSSVSSSYLHWYQQKPGSSPKLWIYSTSNLASGVPARFSGSGSGTSYSLTISSMEAEDAATYYCHQYHRSPPTFGAGTKLELK
modifications: PA13R3-P1C4 Heavy chain variable region; PA13R3-P1C4 Light chain variable region
- effect on CP55,940-induced reduction in intracellular cAMP levels [2]: dose-dependently inhibited
- IC50 ([2]; all batches, 5 μM forskolin, 9 nM CP55,940, read-out: cAMP IC50 Mean ± SD): 138 ± 21 nM
- block of WIN55,212 induced ERK phosphorylation [1]: blocked
- recognition of denatured CB1 protein [3]: could not recognize denatured and linearized CB1 protein
- inhibition of WIN55,212 induced CB1 receptor internalization [4]: inhibited

B3: PA13R3-P1C4 Fab: Fab fragment of chimeric PA13R3-P1C4 (antibody, V domains shown)
VH: B2 VH
VL: B2 VL
- binding to TRex-CHO CB1 cells [5]: dose dependently bound

— patent US11421026B2, “Antibodies that bind human cannabinoid 1 (CB1) receptor” (BIRD ROCK BIO, Inc., priority 2015, dated 2022)
